Test results from PMC8887544.

What was measured:
[1] = biological target: (His)6-MBP-tagged Cas8e (P. aeruginosa, type I-E) (P. aeruginosa (PRD-10 genomic DNA)); assay: ITC; 25°C; 20 μM of either AcrIE4-F7 or (His)6-MBP tagged Cas8e in the cell, titrated with 150-200 μM of the partner, both directions; 20 mM HEPES pH 7.0, 150 mM NaCl, 1 mM TCEP, 5% glycerol; triplicate
[2] = biological target: Cas8f:Cas5f heterodimer (Xanthomonas albilineans, type I-F Cascade subunit) (Xanthomonas albilineans); assay: ITC; 25°C; AcrIE4-F7 (250 μM) injected into Cas8f:Cas5f (35 μM) in the cell; 20 mM Tris-HCl pH 7.5, 150 mM NaCl, 1 mM TCEP

Row | Substance | Kd [1] | dH [1] | stoichiometry N [1] | Kd [2]
1 | AcrIE4-F7 (natural protein) | 200 nM | -14.7 kcal/mol | 1 | 26 nM
2 | AcrIE4-F7(D30K/E31K) (natural protein) | 4800 nM | -11.1 kcal/mol | 0.8 | –
3 | AcrIE4-F7(E12K/D13K) (natural protein) | 400 nM | -22.8 kcal/mol | 0.8 | –
4 | AcrIE4-F7(E38K/D39K) (natural protein) | 190 nM | -12.8 kcal/mol | 0.9 | –
5 | AcrIE4-F7(E46K) (natural protein) | 430 nM | -11.7 kcal/mol | 1 | –
6 | AcrIE4-F7(Y20A) (natural protein) | 3500 nM | -5.6 kcal/mol | 1.1 | –
7 | AcrIE4-F7^CTD (C-terminal domain of AcrIE4-F7, residues 53-119) (domain or fragment) | – | – | – | 13 nM
8 | AcrIE4-F7^NTD (N-terminal domain of AcrIE4-F7, residues 1-52) (domain or fragment) | 140 nM | -18.1 kcal/mol | 0.8 | –
